Experimental data taken from patent US20240209099A1 (SUZHOU TRANSCENTA THERAPEUTICS, published 2024).

Tests used:
[1] = target: T1, Recombinant Human VEGFR2/KDR Protein, His tag (hVEGFR2-his) (human, UniProt P35968 20-764); test: ELISA, human VEGFR2-his coated, anti-human Fc-HRP; antibody made in CHO cells
T1 construct: Expressed in HEK293, bought from ACRO Biosystems; also called human VEGFR2-his; Human VEGFR2/KDR-His

[2] = target: T1, Recombinant Human VEGFR2/KDR Protein, …; test: SPR (Biacore), antibody captured by anti-Fc, antigen 2.5-80 nM
Summary of the method: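 Human or mouse Fc-captured antibody (200–300 RU) on anti-Fc CM5 surface; antigen injected at 2.5–80 nM in HBS-EP pH 7.4 with 180 s association. Reference-cell-subtracted sensorgrams; regeneration with glycine pH 1.5.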

[3] = target: T2, Recombinant Rhesus macaque VEGFR2/KDR Protein, His tag (rhesus macaque); test: ELISA, rhesus VEGFR2-his coated, anti-human Fc-HRP; antibody made in CHO cells
T2 construct: Expressed in HEK293, bought from ACRO Biosystems; also called rhesus VEGFR2-his; rhesus VEGFR2
T2 chain: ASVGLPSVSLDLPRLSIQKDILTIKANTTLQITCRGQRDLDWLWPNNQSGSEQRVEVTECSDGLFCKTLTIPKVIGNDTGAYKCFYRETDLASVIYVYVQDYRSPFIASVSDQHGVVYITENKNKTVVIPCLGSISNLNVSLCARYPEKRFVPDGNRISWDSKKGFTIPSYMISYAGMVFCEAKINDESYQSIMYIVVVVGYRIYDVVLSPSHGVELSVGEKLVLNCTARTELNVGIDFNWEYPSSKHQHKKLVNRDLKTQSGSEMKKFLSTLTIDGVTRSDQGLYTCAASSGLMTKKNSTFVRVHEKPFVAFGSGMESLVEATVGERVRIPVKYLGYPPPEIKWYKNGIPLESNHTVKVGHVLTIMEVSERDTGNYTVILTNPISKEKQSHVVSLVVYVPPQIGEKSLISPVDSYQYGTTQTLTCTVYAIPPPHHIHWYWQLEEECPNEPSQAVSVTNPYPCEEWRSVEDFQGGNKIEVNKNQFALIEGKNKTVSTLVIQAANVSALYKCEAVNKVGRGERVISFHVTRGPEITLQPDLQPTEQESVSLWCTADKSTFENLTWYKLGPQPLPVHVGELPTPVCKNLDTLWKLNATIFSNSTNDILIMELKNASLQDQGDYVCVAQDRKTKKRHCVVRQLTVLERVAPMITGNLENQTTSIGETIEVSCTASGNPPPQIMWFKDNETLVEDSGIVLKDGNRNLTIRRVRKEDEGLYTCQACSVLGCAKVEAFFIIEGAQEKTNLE

[4] = target: T1, Recombinant Human VEGFR2/KDR Protein, …; test: competition ELISA: VEGF-A coated (0.25 ug/ml), antibody titrated together with 1 ug/ml human VEGFR2, detection with mouse anti-VEGFR2 serum and anti-mouse Fc-HRP; blocked ligand VEGF-A
Protocol: For this assay, 0.25 μg/ml VEGF-A was coated on ELISA plate before a mixture of chimeric antibodies and VEGFR2 were added. To detect free VEGF-A (not bind to VEGFR2), 1:1000 diluted mouse serum (mouse previous immunized with human VEGFR2) were added and HRP conjugated goat anti-mouse Fc antibody was used as secondary antibody.
Same protocol of Example 10. Briefly, 0.25 μg/ml VEGF-A was coated overnight at 4° C. After blocking, serial diluted 54-H2L1, 48-H3L1, Ramucirumab and 1 μg/ml human VEGFR2 or rhesus VEGFR2 were added at the same time for 2 hour-incubation. After wash, mouse serum containing polyclone VEGFR2 antibody and HRP conjugated goat anti-mouse Fc antibody were added for detection of free VEGF-A coated on the plates (see FIGS. 13A and 13B).

[5] = target: T1, Recombinant Human VEGFR2/KDR Protein, …; test: ELISA, hVEGFR2-his coated, anti-human Fc-HRP; antibody made in 293T cells
Protocol: Same protocol of Example 4 except using HRP conjugated goat anti-human Fc antibody as secondary antibody. Binding to hVEGFR2-his and rhesus VEGFR2-his (Acrobiosystems, Cat #VE2-C52H3) were also analyzed head-to-head.
Same protocol of Example 9.

human VEGFR1 protein = target: T3, human VEGFR1 protein (human, UniProt P17948 27-756); test: ELISA, 1 µg/ml antigen coated, 1 µg/ml antibody
T3 construct: also called Sino Biological 10136-H08H
Protocol: Briefly, 1 μg/ml human VEGFR1 (Sino Biological, cat #10136-H08H), VEGFR2 (Acrobiosystem, cat #KDR-H5227) and VEGFR3 (Sino Biological, cat #10806-H08H) protein were coated overnight at 4° C. 1 μg/ml humanized antibodies (48-H3L1 and 54-H2L1, produced in CHO cells or Ramucirumab from Eli Lilly Germany, lot #20150819) were added for binding to coated antigen. Secondary antibody HRP conjugated goat anti-human Fc antibody were added for detection of binding signal.

T3 sequence (P17948 27-756 limits assumed): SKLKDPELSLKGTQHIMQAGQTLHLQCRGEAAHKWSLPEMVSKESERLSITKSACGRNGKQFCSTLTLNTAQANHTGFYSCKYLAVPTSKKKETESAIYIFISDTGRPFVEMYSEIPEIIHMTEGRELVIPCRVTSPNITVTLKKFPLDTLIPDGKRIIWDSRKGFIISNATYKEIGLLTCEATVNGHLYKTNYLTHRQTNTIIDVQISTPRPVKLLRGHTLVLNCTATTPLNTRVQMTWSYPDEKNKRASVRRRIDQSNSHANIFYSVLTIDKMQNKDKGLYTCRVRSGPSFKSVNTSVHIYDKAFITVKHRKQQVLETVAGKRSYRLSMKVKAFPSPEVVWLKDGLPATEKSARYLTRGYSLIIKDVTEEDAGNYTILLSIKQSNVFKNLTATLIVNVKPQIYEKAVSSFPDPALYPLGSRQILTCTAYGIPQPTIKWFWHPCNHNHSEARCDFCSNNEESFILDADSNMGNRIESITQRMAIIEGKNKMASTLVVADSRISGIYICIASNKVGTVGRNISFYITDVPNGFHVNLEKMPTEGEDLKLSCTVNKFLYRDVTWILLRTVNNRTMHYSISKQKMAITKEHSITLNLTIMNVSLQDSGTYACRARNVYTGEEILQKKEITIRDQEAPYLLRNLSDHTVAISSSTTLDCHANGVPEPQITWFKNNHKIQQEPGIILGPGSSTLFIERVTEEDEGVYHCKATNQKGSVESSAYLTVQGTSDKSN

B1: 54-H2L1 (humanized Mab54) (antibody, human IgG1, V domains shown)
VH: EVQLVESGGGLVKPGGSLRLSCAASGFTFSMYGMSWVRQAPGKRLEWVASISIGGSYTYYADSVKGRFTISRDNAKNTLYLQMNSLRAEDTAVYYCARELDGNYDYWGQGTTLTVSS
VL: DIVITQDELSLPVTFGESVSISCRSSKSLLYKDGKTYLNWFLQRPGQSPQLLIYLMSTRASGVSDRFSGSGSGTDFTLKISRVEAEDVGIYYCQQLVEYPFTFGSGTKLEIK
notes: also called 54-H2L1 (CHO); humanized 54 variant H2L1
[1]
  EC50: 0.00755 µg/mL
[2]
  Kd: 2.51 nM
  koff: 0.000138 s⁻¹
  kon: 54800 M⁻¹ s⁻¹
[3]
  EC50: 0.0111 µg/mL
[4]
  IC50: 0.654 µg/mL
[5]
  EC50: 0.0288 µg/mL
Human VEGFR1 protein
  binding result: no binding (tested: 1 µg/ml)
